In patent US20140248710, “THREE-COMPONENT BIOSENSORS FOR DETECTING MACROMOLECULES AND OTHER ANALYTES” (Mediomics LLC, published 2014):

Tests used:
Thrombin [1] = molecular target: T1, Thrombin (UniProt P00734;P00734 P00734:328-363,P00734:364-622); assay: fluorescence intensity titration; 50 mM Tris pH 7.5, 100 mM NaCl, 5 mM KCl, 1 mM MgCl2
Thrombin [2] = molecular target: T1, Thrombin; assay: FP; nanomolar range only
[3] = molecular target: Single-stranded DNA binding protein (SSB) (Escherichia coli, UniProt P0AGE0 P0AGE0:2-178); assay: FP; nanomolar concentrations, similar range as thrombin; conditions: tags: Sigma; chain copies: 4; label: 5' fluorescein
Chain of Single-stranded DNA binding protein (SSB) (P0AGE0 2-178, one chain of several): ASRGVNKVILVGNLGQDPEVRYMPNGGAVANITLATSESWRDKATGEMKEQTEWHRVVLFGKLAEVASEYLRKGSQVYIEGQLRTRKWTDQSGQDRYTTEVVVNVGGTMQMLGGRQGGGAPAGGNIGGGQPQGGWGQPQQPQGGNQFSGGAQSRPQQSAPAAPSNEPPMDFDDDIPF

Thrombin [4] = molecular target: T1, Thrombin; assay: EMSA; high affinity; among most efficient competitors (FIG. 16)
Thrombin [5] = molecular target: T1, Thrombin; assay: competition; affinity relative to THR2
Thrombin [6] = molecular target: T1, Thrombin; assay: competition; does not compete with THR2 (binds the other exosite); poor competitor of beacon complex compared with bivalent constructs

For GGTTGGTGTGGTTGG (ssDNA) [THR2 (G15D)], the Kd (Thrombin [1]) was 6.3 nM.

AGTCCGTGGTAGGGCAGGTTGGGGTGACT (ssDNA) [THR1 (60-18 [29])]: binds (Thrombin [2]); binds [3].

B1: THR16/THR17 bivalent (structured_DNA)
DNA 1: GGTTGGTGTGGTTGGTTTTTTTTTTTTTTTTTCTGTCGTTAGTGAAGGTT
DNA 2: AACCTTCACTAACGACAGTTTTTTTTTTTTTTTTTAGTCCGTGGTAGGGCAGGTTGGGGTGACT
B1: binds (Thrombin [4]).

With GGTTGGTGTGGTTGG (ssDNA) [THR4 (G15D)] the binding signal (Thrombin [5]) was 1.7 fold.

B2: THR18/THR19 bivalent (structured_DNA)
DNA 1: GGTTGGTGTGGTTGGTTTTTTTTTTTTTTTTTTTTTTTTTTTCTGTCGTTAGTGAAGGTT
DNA 2: AACCTTCACTAACGACAGTTTTTTTTTTTTTTTTTTTTTTTTTTTAGTCCGTGGTAGGGCAGGTTGGGGTGACT
B2: binds (Thrombin [4]).

AGTCCGTGGTAGGGCAGGTTGGGGTGACT (ssDNA) [THR3 (60-18 [29])]: binds (Thrombin [6]).
